± gives the standard deviation of the averaged measurements.
Legend:
[1] = test system: Saccharomyces cerevisiae; assay: protein stability index of tFT-peptide fusion in wild type (PSI (0-1 scale)); higher = more stable (slower turnover); settings: genetic background: wild type
Protocol: (§1)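 MPS profiling in S. cerevisiae of two library types built from selected 12-aa C-degron peptides (IN1, IN2, LN1, LN3, VN2, R1-R5, W1-W3, Atg1 and Rpa12 C-termini): saturation mutagenesis libraries and C-terminal +1 capping libraries (13 aa). Each peptide is fused to the C-terminus of a sfGFP-mCherry timer, after a GGGS linker. Cells are FACS-sorted into 8 mCherry/sfGFP bins and sequenced. PSI runs from 0 (unstable) to 1 (stable), measured once in wild type and in the das1Δ or doa10Δ background.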

[2] = test system: Saccharomyces cerevisiae; assay: protein stability index of tFT-peptide fusion in deletion strain of DAS1 (PSI (0-1 scale)); higher = more stable (slower turnover)
Protocol: as §1

[3] = test system: Saccharomyces cerevisiae; assay: protein stability index of tFT-peptide fusion (C-terminal peptide) (PSI (0-1 scale)); higher = more stable (slower turnover); settings: temperature: 30 C
Protocol: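 MPS profiling in S. cerevisiae of the yeast C-terminome library: the last 12 aa of each annotated ORF are fused to the C-terminus of a sfGFP-mCherry timer, after a GGGS linker. Cells are FACS-sorted into 8 mCherry/sfGFP bins and deep-sequenced. PSI runs from 0 (unstable) to 1 (stable); wild type and das1Δ backgrounds, two technical replicates each.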

[4] = genetic background: das1 deletion
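Throughout, for protein stability index of tFT-peptide fusion in deletion strain of DAS1: PSI is a weighted mean of each variant's read distribution over the sorted stability bins, computed only for variants having over 10 reads in total.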
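Throughout, for protein stability index of tFT-peptide fusion in wild type: PSI derived as read-weighted mean over the 8 sorting bins, only variants exceeding 10 total reads kept, mCherry placed adjacent to the peptide and sfGFP distal.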

| Sequence | protein stability index [1] | protein stability index [2] | protein stability index [3, 4] | protein stability index ([3]; genetic background: wild type) |
| --- | --- | --- | --- | --- |
| RLIQMLPVQFLN | 0.0223 | 0.626 |  |  |
| ARWRVGLWRGAQ | 0.411 | 0.679 |  |  |
| ARTRVGLWRGAS | 0.598 | 0.66 |  |  |
| PSLAASWWRVVG | 0.179 | 0.693 |  |  |
| CTCCGYKFRTNN | 0.294 | 0.676 |  |  |
| PDKRNHAIKLLN | 0.186 | 0.603 |  |  |
| FSMRWTFRVWVN | 0.035 | 0.271 |  |  |
| CTSCGLKFRTNN | 0.34 | 0.691 |  |  |
| PCLAASFWRVVG | 0.128 | 0.68 |  |  |
| KKHKKGQKQKLN | 0.133 | 0.602 |  |  |
| PSLAASFWRVVC | 0.119 | 0.679 |  |  |
| LKILRQKMNHHN | 0.247 | 0.688 |  |  |
| PDKRNHLIKLKN | 0.273 | 0.599 |  |  |
| FSMPWTFRYWVN | 0.11 | 0.598 |  |  |
| CTSCGYKFRTNR | 0.696 | 0.692 |  |  |
| RLIQPCPVQFLN | 0.0722 | 0.612 |  |  |
| CTSCGYKFRTNNK | 0.669 | 0.682 |  |  |
| PRLAASFWRVVG | 0.197 | 0.691 |  |  |
| LVVYCSCVACIN | 0.0182 | 0.0283 |  |  |
| LVVYLSCVKCIN | 0.146 | 0.319 |  |  |
| RLIQPLPMQFLN | 0.0399 | 0.636 |  |  |

| Sequence | protein stability index [1] | protein stability index [2] | protein stability index [3, 4] | protein stability index ([3]; genetic background: wild type) |
| --- | --- | --- | --- | --- |
| KKGKKGQKQKIN | 0.11 | 0.592 |  |  |
| PSLAKSFWRVVG | 0.375 | 0.702 |  |  |
| PSLGASFWRVVG | 0.207 | 0.696 |  |  |
| LVVWLSCVACIN | 0.0122 | 0.0381 |  |  |
| FSMRWTYRYWVN | 0.0544 | 0.504 |  |  |
| KKHKKGQKCKIN | 0.153 | 0.59 |  |  |
| ETSCGYKFRTNN | 0.266 | 0.672 |  |  |
| FSMRWPFRYWVN | 0.0756 | 0.569 |  |  |
| KRGAVGGWRLVG | 0.165 | 0.648 |  |  |
| LKILRQKLNHQN | 0.187 | 0.676 |  |  |
| PDKRNHLIKLLV | 0.118 | 0.618 |  |  |
| FSMRWTFRYWVNM | 0.113 | 0.543 |  |  |
| LKIKRQKMNHQN | 0.208 | 0.683 |  |  |
| VRGAVGGWRLGG | 0.69 | 0.628 |  |  |
| ARWRVGYWRGAS | 0.478 | 0.691 |  |  |
| RLIQPLPVQFTN | 0.377 | 0.723 |  |  |
| CTSCGYKFHTNN | 0.429 | 0.713 |  |  |
| QKILRQKMNHQN | 0.152 | 0.678 |  |  |
| RLIQPLPIQFLN | 0.0384 | 0.593 |  |  |
| KKHKKGQKQKIV | 0.136 | 0.596 |  |  |
| PDKRNHLIKLLY | 0.328 | 0.587 |  |  |

| Sequence | protein stability index [1] | protein stability index [2] | protein stability index [3, 4] | protein stability index ([3]; genetic background: wild type) |
| --- | --- | --- | --- | --- |
| FSMRWIFRYWVN | 0.163 | 0.535 |  |  |
| RLIQPLPVQILN | 0.309 | 0.774 |  |  |
| VRGAVGGSRLVG | 0.642 | 0.669 |  |  |
| LVKYLSCVACIN | 0.09 | 0.365 |  |  |
| KKHKKGQKQVIN | 0.579 | 0.629 |  |  |
| LKILRVKMNHQN | 0.187 | 0.646 |  |  |
| PIKRNHLIKLLN | 0.157 | 0.622 |  |  |
| VRGAYGGWRLVG | 0.114 | 0.664 |  |  |
| PSLAASFSRVVG | 0.665 | 0.631 |  |  |
| RLIQPLPVQSLN | 0.457 | 0.612 |  |  |
| FSMRKTFRYWVN | 0.0767 | 0.577 |  |  |
| LIVYLSCVACIN | 0.0145 | 0.0335 |  |  |
| MRWRVGLWRGAS | 0.143 | 0.727 |  |  |
| CTSCGYKFRTNF | 0.417 | 0.712 |  |  |
| FSMRWTFRYWCN | 0.081 | 0.516 |  |  |
| CTSCGYKFRTCN | 0.18 | 0.702 |  |  |
| ARWRVSLWRGAS | 0.268 | 0.687 |  |  |
| SKHKKGQKQKIN | 0.153 | 0.625 |  |  |
| KKHKKGQKQKHN | 0.439 | 0.653 |  |  |
| RLIQPLKVQFLN | 0.054 | 0.805 |  |  |
| CTSCGAKFRTNN | 0.502 | 0.723 |  |  |

| Sequence | protein stability index [1] | protein stability index [2] | protein stability index [3, 4] | protein stability index ([3]; genetic background: wild type) |
| --- | --- | --- | --- | --- |
| PSLAASFWRVVGC | 0.664 | 0.685 |  |  |
| CTSQGYKFRTNN | 0.251 | 0.678 |  |  |
| PSLAVSFWRVVG | 0.137 | 0.673 |  |  |
| CTSCGYKFRDNN | 0.673 | 0.663 |  |  |
| VRGAVGLWRLVG | 0.164 | 0.675 |  |  |
| RLIQPLPVQFLA | 0.139 | 0.589 |  |  |
| PSVAASFWRVVG | 0.142 | 0.679 |  |  |
| PTSCGYKFRTNN | 0.219 | 0.677 |  |  |
| FSMRWTFRYWVF | 0.0705 | 0.439 |  |  |
| CTSCGYKCRTNN | 0.601 | 0.661 |  |  |
| RAVTKYSSSTQA [HTB1 C-terminal 12 aa] |  |  | 0.7067 ± 0.0046 | 0.695 ± 0.034 |
| TSSTPLVIVDSK [HXT10 C-terminal 12 aa] |  |  | 0.672 ± 0.013 | 0.713 ± 0.064 |
| DGGVKRIRVWGY [DAL2 C-terminal 12 aa] |  |  | 0.706 ± 0.024 | 0.703 ± 0.054 |
| LQFILPSMNLAN [GPB1 C-terminal 12 aa] |  |  | 0.692 ± 0.0087 | 0.656 ± 0.015 |
| DKRNLLEILDFS [RRT13 C-terminal 12 aa] |  |  | 0.72 ± 0.021 | 0.695 ± 0.029 |
| VVIIVPIVVHFS [SNC2 C-terminal 12 aa] |  |  | 0.351 ± 0.012 | 0.425 ± 0.046 |
| GLEKKKKKQNNQ [NPR1 C-terminal 12 aa] |  |  | 0.69 ± 0.015 | 0.662 ± 0.0018 |
| STITSMNPDTTK [VHS2 C-terminal 12 aa] |  |  | 0.711 ± 0.031 | 0.669 ± 0.04 |
| RYKILDLIISKL [UTP6 C-terminal 12 aa] |  |  | 0.789 ± 0.042 | 0.683 ± 0.04 |
| PGTRGRVASKFL [MIM1 C-terminal 12 aa] |  |  | 0.7098 ± 0.0037 | 0.705 ± 0.0099 |
| DASVEQNILAVL [RQT4 C-terminal 12 aa] |  |  | 0.70427 ± 0.00032 | 0.6904 ± 0.0037 |

From the supplement of paper PMC10724198
